Data from patent US20250011468A1 (Novo Nordisk, published 2025).

These binders were tested against human plasma-derived FIXa (Haematologic Technologies Inc) (human, UniProt P00740 47-191; P00740 227-461) (assay: cell-based or functional assay).
human plasma-derived FIXa (Haematologic Technologies Inc), sequence (P00740 47-191, chain 1 of 2): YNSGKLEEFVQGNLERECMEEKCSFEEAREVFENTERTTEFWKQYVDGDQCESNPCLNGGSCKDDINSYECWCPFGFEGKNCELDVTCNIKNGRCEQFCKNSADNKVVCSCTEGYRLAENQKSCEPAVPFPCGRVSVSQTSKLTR
human plasma-derived FIXa (Haematologic Technologies Inc), sequence (P00740 227-461, chain 2 of 2): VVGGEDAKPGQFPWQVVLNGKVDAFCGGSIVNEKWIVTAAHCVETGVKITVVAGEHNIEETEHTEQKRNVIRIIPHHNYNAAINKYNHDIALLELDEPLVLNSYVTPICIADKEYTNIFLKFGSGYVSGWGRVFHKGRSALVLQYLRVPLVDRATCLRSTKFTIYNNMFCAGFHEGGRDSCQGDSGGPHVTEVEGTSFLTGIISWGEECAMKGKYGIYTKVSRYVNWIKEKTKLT

Stimulation index at 474 nM OA antibody | Stimulation index at 800 nM OA antibody | Stimulation index at 1478 nM OA antibody | Stimulation index at 564 nM OA antibody | Stimulation index at 264 nM OA antibody | Stimulation index at 900 nM OA antibody | Stimulation index at 1600 nM OA antibody | Binder
382 fold |  |  |  |  |  |  | mAb4-3505 (monovalent one-armed version of mAb1-5797) (antibody, V domains shown) VH: EVQLVQSGAEVKKPGESLRISCKGSGYRFTSYWIGWVRQMPGKGLEWMGMIDPTDSYTDYGPSFHGHVTISADKSISTAYLQWSSLKASDTAMYYCARMRIMSGAFDIWGQGTMVTVSS VL: DIVMTQSPLSLPVTPGEPASISCRSSQSLLHSTWYNYLNWYLQKPGQSPQLLIYLGSRRASGVPDRFSGSGSGTDFTLKISRVEAEDVGVYYCMQVLHIPYTFGQGTKLEIK
 | 133 fold |  |  |  |  |  | mAb4-5368 (monovalent one-armed version of mAb1-6606) (antibody, V domains shown) VH: EVQLVQSGAEVKKPGESLRISCKGSGYSFRPYWIGWVRQMPGKGLEWMGMIDPSDSYTDYGPSFEGHVTISADKSISTAYLQWSSLKASDTAMYYCARVRIRAGAFDIWGQGTMVTVSS VL: DIVMTQSPLSLPVTPGEPASISCRSSQSLLHSTWYNYLNWYLQKPGQSPQLLIYLGSNRASGVPDRFSGSGSGTDFTLKISRVEAEDVGVYYCMQALHIPYTFGQGTKLEIK
 |  | 615 fold |  |  |  |  | mAb4-3461 (monovalent one-armed version of mAb1-5754) (antibody, V domains shown) VH: EVQLVQSGAEVKKPGESLRISCKGSGYSFRPYWIGWVRQMPGKGLEWMGMIDPSDSYTDYGPSFEGHVTISADKSISTAYLQWSSLKASDTAMYYCARVRIRAGAFDIWGQGTMVTVSS VL: DIVMTQSPLSLPVTPGEPASISCRSSQRLLHSTGYNYLNWYLQKPGQSPQLLIYLGKNRASGVPDRFSGSGSGTDFTLKISRVEAEDVGVYYCMQVLHIPYTFGQGTKLEIK
 |  |  | 1220 fold |  |  |  | mAb4-3486 (monovalent one-armed version of mAb1-5781) (antibody, V domains shown) VH: EVQLVQSGAEVKKPGESLRISCKGSGYSFKPYWIGWVRQMPGKGLEWMGMIDPSDSYTDYGPSFRGHVTISADKSISTAYLQWSSLKASDTAMYYCARVRIRAGAFDIWGQGTMVTVSS VL: DIVMTQSPLSLPVTPGEPASISCRSSQSLLHRTWYNYLNWYLQKPGQSPQLLIYLGRNRASGVPDRFSGSGSGTDFTLKISRVEAEDVGVYYCMQVLHIPYTFGQGTKLEIK
 | 94 fold |  |  |  |  |  | mAb4-5375 (monovalent one-armed version of mAb1-6609) (antibody, V domains shown) VH: EVQLVQSGAEVKKPGESLRISCKGSGYRFTPYWIGWVRQMPGKGLEWMGMIDPTDSYTDYGPSFRGHVTISADKSISTAYLQWSSLKASDTAMYYCARVRIRSGAFDIWGQGTMVTVSS VL: DIVMTQSPLSLPVTPGEPASISCRSSQSLLHSTWYNYLNWYLQKPGQSPQLLIYLGSNRASGVPDRFSGSGSGTDFTLKISRVEAEDVGVYYCMQALHIPYTFGQGTKLEIK
 |  |  |  | 1040 fold |  |  | mAb4-3490 (monovalent one-armed version of mAb1-5783) (antibody, V domains shown) VH: EVQLVQSGAEVKKPGESLRISCKGSGYSFRPYWIGWVRQMPGKGLEWMGMIDPSDSYTDYGPSFRGHVTISADKSISTAYLQWSSLKASDTAMYYCARVRIRAGAFDIWGQGTMVTVSS VL: DIVMTQSPLSLPVTPGEPASISCRSSQSLLHRTWYNYLNWYLQKPGQSPQLLIYLGRNRASGVPDRFSGSGSGTDFTLKISRVEAEDVGVYYCMQVLHIPYTFGQGTKLEIK
 |  |  |  |  | 239 fold |  | mAb4-3503 (monovalent one-armed version of mAb1-5796) (antibody, V domains shown) VH: EVQLVQSGAEVKKPGESLRISCKGSGYSFRPYWIGWVRQMPGKGLEWMGMIDPSDSYTDYGPSFHGHVTISADKSISTAYLQWSSLKASDTAMYYCARVRIMSGAFDIWGQGTMVTVSS VL: DIVMTQSPLSLPVTPGEPASISCRSSQSLLHSTWYNYLNWYLQKPGQSPQLLIYLGKNRASGVPDRFSGSGSGTDFTLKISRVEAEDVGVYYCMQVLHIPYTFGQGTKLEIK
 | 850 fold |  |  |  |  |  | mAb4-9578 (monovalent one-armed version of mAb1-7977) (antibody, V domains shown) VH: EVQLVESGGGLVQPGRSLKLSCAASGFRFDDYAMHWVRQAPGKGLEWVSGISWRGAQIGYADSVKGRFTISRDNAKNSLYLQLNSLRAEDTALYYCAKSYGSGSFYNAFDSWGQGTLVTVSS VL: DIQMTQSPSTLSASVGDRVTITCRASQKISSWLAWYQQKPGKAPKFLIYKASRLDRGVPSRFSGSGSGTEFSLTISSLQPDDFATYYCLEYRSYIRTFGQGTKVEIK
 |  |  |  |  |  | 320 fold | mAb5-1695 (monovalent one-armed version of mAb1-9134) (antibody, V domains shown) VH: EVQLVESGGGLVQPGRSLKLSCAASGFTFDDYAMHWVRQVPGKGLEWVSGISWKGDIIGYVDSVKGRFTISRDNAKNSLYLQLNSLRAEDTALYYCVKSYGSGSFYNAFDSWGQGTLVTVSS VL: DIQMTQSPSTLSASAGDRVTITCRASQSISEWLAWYQQKPGKAPKFLIYKASRLDRGVPSRFSGSGSGTEFSLTISSLQPDDFATYYCLEYSSYIRTFGQGTKVEIK
 |  |  |  |  |  | 283 fold | mAb5-0514 (monovalent one-armed version of mAb1-8543) (antibody, V domains shown) VH: EVQLVESGGGLVQPGRSLKLSCAASKFRFDDYAMHWVRQVPGKGLEWVSGISWRGDIIGYVDSVKGRFTISRDNEKNSLYLQLNSLRAEDTALYYCVKSYGSGSFYNAFDSWGQGTLVTVSS VL: DIQMTQSPSTLSASAGDRVTITCRASQSISSWLAWYQQKPGKAPKFLIYKASRLERDVPSRFSGSGSGTEFSLTISSLQPDDFATYYCLEYRSYIRTFGQGTKVEIK
 |  |  |  |  |  | 918 fold | mAb5-0658 (monovalent one-armed version of mAb1-8679) (antibody, V domains shown) VH: EVQLVESGGGLVQPGRSLKLSCAASGFTFDDYAMHWVRQVPGKGLEWVSGISWRGDIIGYVKSVKGRFTISRDNAKNSLYLQLNSLRAEDTALYYCVKSYGSGSFYNAFDSWGQGTLVTVSS VL: DIQMTQSPSTLSASVGDRVTITCRASKSIKSWLAWYQQKPGKAPKFLIYKASRLERGVPSRFSGSGSGTEFSLTISSLQPDDFATYYCLEYSSYIRTFGQGTKVEIK
 |  |  |  |  |  | 531 fold | mAb5-1528 (monovalent one-armed version of mAb1-9058) (antibody, V domains shown) VH: EVQLVESGGGLVQPGRSLKLSCAASGFTFHDYAMHWVRQVPGKGLEWVSGISWRGDIIGYVDSVKGRFTISRDNAKNSLYLQLNSLRAEDTALYYCVKSYGSGSFYNAFDSWGQGTLVTVSS VL: DIQMTQSPSTLSASAGDRVTISCRASQSISSWLAWYQQKPGKAPKFLIYKASRLDRGVPSRFSGSGSGTEFTLTISSLQPDDFATYYCLEYNSYIRTFGQGTKVEIK
 |  |  |  |  |  | 799 fold | mAb5-0900 (monovalent one-armed version of mAb1-8459) (antibody, V domains shown) VH: EVQLVESGGGLVQPGRSLKLSCAASGFTFDDYAMHWVRQVPGKGLEWVSGISWRGDIIGYVKSVKGRFTISRDNAKNSLYLQLNSLRIEDTALYYCVKSYGSGSFYNAFDSWGQGTLVTVSS VL: DIQMTQSPSTLSASAGDRVTITCRASKSISSWLAWYQQKPGKAPKFLIYKAERLERGVPSRFSGSGSGTEFSLTISSLQPDDFATYYCLEYSSYIRTFGQGTKVEIK
 |  |  |  |  |  | 417 fold | mAb5-0152 (monovalent one-armed version of mAb1-8782) (antibody, V domains shown) VH: EVQLVESGGGLVQPGRSLKLSCAASGFTFHDYAMHWVRQVPGKGLEWVSGISWRGDITGYVDSVKGRFTISRDNAKNSLYLQLNSLRAEDTALYYCVKSYGSGSFYNAFDSWGQGTLVTVSS VL: DIQMTQSPSTLSASAGDRVTITCRASQSISSWLAWYQQKPGKAPKFLIYKASRLDRGVPSRFSGSGSGTEFSLTISSLQPDDFATYYCLEYSSYIRTFGQGTKVEIK
 |  |  |  |  |  | 1020 fold | mAb5-0908 (monovalent one-armed version of mAb1-8467) (antibody, V domains shown) VH: EVQLVESGGGLVQPGRSLKLSCAASKFRFDDYAMHWVRQVPGKGLEWVSGISWRGDIIGYVDSVKGRFTISRDNEKNSLYLQLNSLRAEDTALYYCVKSYGSGSFYNAFDSWGQGTLVTVSS VL: DIQMTQSPSTLSASAGDRVTITCRASKSISSWLAWYQQKPGKAPKFLIYKASRLERGVPSRFSGSGSGTEFSLTISSLQPDDFATYYCLEYSSYIRTFGQGTKVEIK
 |  |  |  |  |  | 1650 fold | mAb5-0144 (monovalent one-armed version of mAb1-8780) (antibody, V domains shown) VH: EVQLVESGGGLVQPGRSLKLSCAASGFTFHDYAMHWVRQVPGKGLEWVSGISWRGDIKGYVDSVKGRFTISRDNAKNSLYLQLNSLRAEDTALYYCVKSYGSGSFYNAFDSWGQGTLVTVSS VL: DIQMTQSPSTLSASAGDRVTITCRASQSISSWLAWYQQKPGKAPKFLIYKASRLDRGVPSRFSGSGSGTEFSLTISSLQPDDFATYYCLEYSSYIRTFGQGTKVEIK
 |  |  |  |  |  | 1330 fold | mAb5-1263 (monovalent one-armed version of mAb1-9015) (antibody, V domains shown) VH: EVQLVESGGGLVQPGRSLKLSCAASGFTFDDYAMHWVRQVPGKGLEWVSGISWRGDIKGYVDSVKGRFTISRDNAKNSLYLQLNSLRAEDTALYYCVKSYGSGSFYNAFDSWGQGTLVTVSS VL: DIQMTQSPSTLSASAGDRVTITCRASQSISSWLAWYQQKPGKAPKFLIYKASRLERGVPSRFSGSGSGTEFSLTISSLQPDDFATYYCLEYSSYIRTFGQGTKVEIK
 | 621 fold |  |  |  |  |  | mAb5-0161 (monovalent one-armed version of mAb1-8785) (antibody, V domains shown) VH: EVQLVESGGGLVQPGRSLKLSCAASGFTFHDYAMHWVRQVPGKGLEWVSGISWRGDIIGYVDSVKGRFTISRDNKKNSLYLQLNSLRAEDTALYYCVKSYGSGSFYNAFDSWGQGTLVTVSS VL: DIQMTQSPSTLSASAGDRVTITCRASQSISSWLAWYQQKPGKAPKFLIYKASRLDRGVPSRFSGSGSGTEFSLTISSLQPDDFATYYCLEYSSYIRTFGQGTKVEIK
 | 732 fold |  |  |  |  |  | mAb5-2035 (monovalent one-armed version of mAb1-9285) (antibody, V domains shown) VH: EVQLVESGGGLVQPGRSLKLSCAASGFTFDDYAMHWVRQVPGKGLEWVSGISWRGDIIGYVKSVKGRFTISRDNAKNSLYLQLNSLRIEDTALYYCVKSYGSGSFYNAFDSWGQGTLVTVSS VL: DIQMTQSPSTLSASAGDRVTITCRASKSISSWLAWYQQKPGKAPKFLIYKASRLERGVPSRFSGSGSGTEFSLTISSLQPDDFATYYCLEYSSYIRTFGQGTKVEIK
 | 567 fold |  |  |  |  |  | mAb5-1257 (monovalent one-armed version of mAb1-9002) (antibody, V domains shown) VH: EVQLVESGGGLVQPGRSLKLSCAASKFTFDDYAMHWVRQVPGKGLEWVSGISWRGDIIGYVDSVKGRFTISRDNAKNSLYLQLNSLRAEDTALYYCVKSYGSGSFYNAFDSWGQGTLVTVSS VL: DIQMTQSPSTLSASAGDRVTITCRASQSISSWLAWYQQKPGKAPKFLIYKASRLERGVPSRFSGSGSGTEFSLTISSLQPDDFATYYCLEYSSYIRTFGQGTKVEIK
 |  |  |  |  |  | 4320 fold | mAb5-1270 (monovalent one-armed version of mAb1-9016) (antibody, V domains shown) VH: EVQLVESGGGLVQPGRSLKLSCAASGFTFDDYAMHWVRQVPGKGLEWVSGISWRGDIGGYVDSVKGRFTISRDNAKNSLYLQLNSLRAEDTALYYCVKSYGSGSFYNAFDSWGQGTLVTVSS VL: DIQMTQSPSTLSASAGDRVTITCRASQSISSWLAWYQQKPGKAPKFLIYKASRLERGVPSRFSGSGSGTEFSLTISSLQPDDFATYYCLEYSSYIRTFGQGTKVEIK
